# Key:
# LLC cells = assay: ex vivo co-display of fusion proteins on biotinylated LLC cells (flow cytometry); type: cell-based; settings: 15 μM biotin, 100 ng/protein/10^6 cells
# Protocol: (§1) Engineering of cell surfaces. LLC or A20 tumor cells are washed with ice-cold PBS and incubated at 2×10^7 cells/ml in PBS, pH 8.0, containing 5-15 μM EZ-Link™ Sulfo-NHS-LC-Biotin (Pierce) at room temperature for 30 min. Cells are washed extensively and incubated at 1×10^6 cell/ml with 100 ng/purified immune co-stimulatory-streptavidin fusion protein for 45 min at 4° C. After extensive washing with PBS, cells are processed for flow cytometric analysis to assess the cells engineered with the immune co-stimulatory fusion proteins. Such cells also are used for functional studies in vitro. Cells are irradiated at 100 Gy prior to being used in in vitro studies.
# One million LLC cells were biotinylated using 15 μM of EZ-Link™ Sulfo-NHS-LC-Biotin derivative from Pierce Biotechnology, Inc. (Rockford, Ill.) in PBS at room temperature for 20-30 minutes. Biotin was then removed by centrifugation, cells were washed once, transferred into a clean second tube, washed 1-2 more times, and then contacted with CD80-CSA and 4-1BBL-CSA fusion proteins at 100 ng/protein/10^6 cells in PBS for 30-45 minutes on ice. Cells were then washed extensively and used for staining with saturating concentrations of various fluorochrome-conjugated antibodies to CD80 and 4-1BBL in PBS by incubation on ice for 30-45 minutes. Cells were then washed extensively with FACS medium and used for flow cytometric analysis. […] FIG. 8.
# A20 cells [1] = assay: ex vivo co-display of fusion proteins on biotinylated A20 cells (flow cytometry); type: cell-based; settings: 5 μM biotin, 100 ng/protein/10^6 cells
# Protocol: as §1
# A20 cells were biotinylated (5 μM) and then contacted with CD80-CSA and 4-1BBL-CSA fusion proteins at 100 ng/protein/10^6 cells, following procedures similar to those set forth above.
# CD4^+ or CD8^+ T cells = assay: proliferation of CFSE-labeled T cells against A20 cells decorated with 4-1BBL; type: cell-based, C57B/6 (H2-K^b) mice; settings: 4:1 ratio, 4 days co-culture, flow cytometry
# Protocol: CD4^+ and CD8^+ T cells were FACS-sorted from spleens and lymph nodes of naïve C57B/6 (H2-K^b) mice and were stained with carboxyfluorescein diacetate succinimidylester (CFSE). Briefly, cells were washed with PBS, incubated in 4 ml of 2.5 μM CFSE/1×10^6 cells for 7 minutes at room temperature. Cells were then incubated in two volumes of FBS for 1 min, and washed 2 times with PBS. A20 B lymphoma cells (H2-K^d) were washed in PBS and biotinylated using freshly prepared EZ-Link Sulfo-NHS-LC-Biotin in PBS (1 ml solution per 50×10^6 cells) for 30 min at room temperature. After washing with PBS, cells were irradiated at 10000 cGy. Biotinylated and irradiated A20 cells were incubated with CSA-4-1BBL (100 ng/1×10^6cells) or control protein CSA (38 ng/1×10^6 cells) in 5 ml tubes for 30 minutes in a cold room. After washing the cells extensively, some of the cells were stained with fluorochrome conjugated antibodies against 4-1BBL and streptavidin to detect the decoration, or with fluorochrome conjugated streptavidin to detect biotinylation. […]
# Proliferation of T cells were determined using flow cytometry after staining cells with fluorochrome conjugated anti-CD4 or anti-CD8 antibodies.
# A20 B lymphoma cells [2] = assay: in vivo engineering of solid A20 tumors (intratumoral biotin, then CD80-CSA); design: species or system Balb/c mice
# Protocol: One million live A20 B lymphoma cells were injected subcutaneously to the right flank of naïve syngeneic Balb/c mice. When the tumor size reached 7-9 mm in diameter, 300 μL of 1 mM EZ-Link Sulfo-NHS-LC-Biotin in PBS was injected into the tumor, followed 24 hrs later by intratumoral injection of 40 μg of CD80-CSA fusion protein in 150 μL PBS. Tumor cells were harvested and analyzed 24 hrs after protein injection. Biotin levels were detected by streptavidin-APC and fusion protein levels were detected by an antibody against CD80. Cells from untreated tumors and biotinylated tumors were used as negative controls for biotin and CD80, respectively.
# [3] = test system: peripheral blood lymphocytes from healthy volunteers; assay: MLTR assay with tumor cells engineered with CD80-CSA; type: cell-based, human; settings: HEC-1-A endometrial cancer cell line engineered with CD80-CSA
# A20 B lymphoma cells [4] = assay: quantification of CD80-CSA molecules displayed per cell (Quantum-27 MESF kit); type: cell-based; settings: 5 μM biotin, 100 ng protein
# Protocol: Cells were stained with phycoerythrin (PE) conjugated anti-human CD80 antibody. The Quantum-27 MESF kit from Bangs Laboratories was used to estimate the number of CD80-CSA molecules per cell. Molecules of equivalent soluble fluorochrome (MESF) for the samples were calculated according to the calibration curve constructed by five MESF beads with varying MESF values (0, 727, 2737, 10110, 41738) using Cell Quest analysis program (Becton Dickinson Biosciences). The data for each sample was converted into MESF values. FIG. 10.
# A20 cells [5] = assay: effect of timing of CD80-CSA administration after biotinylation of A20 tumors; type: in vivo, BALB/c mice
# Protocol: A similar protocol was followed to evaluate the effect of the timing of the CD80-CSA administration subsequent to biotinylation. 1×10^6 A20 cells were injected subcutaneously into the right back flank of naïve BALB/c mice. Tumor growth was monitored and measured using calipers three times a week. When the tumor size reached 7-9 mm average diameter, 300 μl of 5 mM biotin solution (EZ-Link Sulfo-NHS-LC-Biotin in PBS) was injected into the tumors. At 2, 4, 8 or 16 hours after biotin injection, biotinylation was assessed as described above and 50 μg of CD80-SA was administered by intratumoral injection. (Some animals were left untreated as negative controls.) Animals were euthanized 16 hours after CD80-SA injection. Tumors were processed into single cell suspensions, and fusion protein levels were detected by an antibody against CD80 using flow cytometry. The results (FIG. 16) show a greater percentage of biotinylated cells decorated when the fusion protein was administered 16 hours after biotin administration, with 62% of biotinylated cells being decorated, compared to 49%, 31% and 10% at 8, 4 and 2 hours post-biotin administration, respectively.
# splenocytes = assay: in vivo kinetics of protein display on ex vivo engineered splenocytes; settings: 15 μM biotin, 100 ng/1×10^6 cells, injected intravenously into syngeneic animals
# Protocol: The kinetics of persistence of the exogenous proteins on the cell surface was determined in vivo. Splenocytes were modified with biotin (15 μM), engineered with an CD80-CSA fusion protein (100 ng/1×10^6 cells), labeled with CFSE, and injected intravenously into syngeneic animals. Splenocytes and LN cells were harvested various days post-injection and analyzed for the presence of fusion protein on CFSE positive cells. CD80-CSA persisted on the surface of splenocytes with a t1/2 of >10 days. FIG. 9.
molecule,measurement,setting,value
4-1BBL-CSA: CSA-murine 4-1 BBL fusion protein (SEQ ID NOs 5 and 6) (protein) FMQLKGGSDLNMKLCILLAVVAFVGLSLGRSHHHHHHITGTWYNQLGSTFIVTAGADGALTGTYESAVGNAESRYVLTGRYDSAPATDGSGTALGWTVAWKNNYRNAHSATTWSGQYVGGAEARINTQWLLTSGATEANAWKSTLVGHDTFTKVKPSAASSEFRTEPRPALTITTSPNLGTRENNADQVTPVSHIGCPNTTQQGSPVFAKLLAKNQASLCNTTLNWHSQDGAGSSYLSQGLRYEEDKKELVVDSPGLYYVFLELKLSPTFTNTGHKVQGWVSLVLQAKPQVDDFDNLALTVELFPCSMENKLVDRSWSQLLLLKAGHRLSVGLRAYLHGAQDAYRDWELSYPNTTSFGLFLVKPDNPWE,display on the surface of tumor cells,LLC cells,co-displayed on the surface of tumor cells at comparable levels
same,display on the surface of tumor cells,A20 cells [1],co-displayed on the surface of tumor cells at comparable levels
same,proliferative response of T cells against decorated A20 cells,CD4^+ or CD8^+ T cells,52.6%
CD80-CSA: chimeric protein comprising the extracellular domain of human B7.1 (CD80) and core streptavidin (SEQ ID NO:4) (protein) SPVQLKGGSDLNMKLCILLAVVAFVGLSLGRSIHVTKEVKEVATLSCGHNVSVEELAQTRIYWQKEKKMVLTMMSGDMNIWPEYKNRTIFDITNNLSIVILALRPSDEGTYECVVLKYEKDAFKREHLAEVTLSVKADFPTPSISDFEIPTSNIRRIICSTSGGFPEPHLSWLENGEELNAINTTVSQDPETELYAVSSKLDFNMTTNHSFMCLIKYGHLRVNQTFNWNTTKQERSHHHHHHITGTWYNQLGSTFIVTAGADGALTGTYESAVGNAESRYVLTGRYDSAPATDGSGTALGWTVAWKNNYRNAHSATTWSGQYVGGAEARINTQWLLTSGATEANAWKSTLVGHDTFTKVKPSAASSRILQISSTVAAARV,display on the surface of tumor cells,LLC cells,co-displayed on the surface of tumor cells at comparable levels
same,tumor cells positive for CD80,"A20 B lymphoma cells [2]; 40 μg intratumorally 24 hrs after biotin, 24 hrs after protein injection",81%
same,biotin positive cells displaying protein,A20 B lymphoma cells [2]; I mM biotin followed by 40 μg 24 hrs later,> 80%
same,proliferative response of peripheral blood lymphocytes,[3],potent proliferative responses
same,average number of molecules per cell,A20 B lymphoma cells [4],"118,000 molecules per cell"
same,display on the surface of tumor cells,A20 cells [1],co-displayed on the surface of tumor cells at comparable levels
same,biotinylated cells being decorated,A20 cells [5]; 50 μg intratumorally 2 hours after 5 mM biotin,10%
same,biotinylated cells being decorated,A20 cells [5]; 50 μg intratumorally 4 hours after 5 mM biotin,31%
same,biotinylated cells being decorated,A20 cells [5]; 50 μg intratumorally 8 hours after 5 mM biotin,49%
same,biotinylated cells being decorated,A20 cells [5]; 50 μg intratumorally 16 hours after 5 mM biotin,62%
same,t1/2 of persistence on the surface of splenocytes in vivo,splenocytes,> 240 h
